The target of this data set is T1, IB1 280-714 (Rattus, UniProt Q9R237 SEQ:280-714).
T1 sequence: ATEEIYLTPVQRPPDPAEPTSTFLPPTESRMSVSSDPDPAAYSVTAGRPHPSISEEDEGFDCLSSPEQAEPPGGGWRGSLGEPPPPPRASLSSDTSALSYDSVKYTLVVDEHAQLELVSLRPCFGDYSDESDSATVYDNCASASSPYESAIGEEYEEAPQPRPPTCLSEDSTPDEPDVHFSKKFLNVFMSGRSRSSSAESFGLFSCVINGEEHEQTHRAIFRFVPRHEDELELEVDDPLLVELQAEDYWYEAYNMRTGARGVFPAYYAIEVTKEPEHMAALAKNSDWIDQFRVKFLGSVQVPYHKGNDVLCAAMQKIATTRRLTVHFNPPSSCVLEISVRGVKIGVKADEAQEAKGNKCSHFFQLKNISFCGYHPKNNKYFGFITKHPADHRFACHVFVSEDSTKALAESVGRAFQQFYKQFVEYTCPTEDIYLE
The experiment in a line: SouthWestern. The settings on record: tags: bacterially produced; label: 32P.

B1: GTII (dsDNA)
DNA 1: GTAAAGGGTGTATTGATTGGATTACCATCAATACTCAGCTTCT
DNA 2: AGAAGCTGAGTATTGATGGTAATCCAATCAATACACCCTTTAC
Take B1: the binding result is “binds”.

The values are drawn from patent US6620914, “Transcription factor islet-brain 1 (IB1)” (Gerard).
